“And” between values parts separate entries of the source, which are not always exact repeats. Identical values can stand only once. Where no end group is shown, it is not given here. [ ]: non-standard residue; d: D form. The star is where a group is joined. Biotin = O=C1N[C@H]2[C@H](CS[C@H]2CCCCC(=O)*)N1; AEEA = NCCOCCOCC(=O)O
B1: F254 (peptide)
peptide: ESFYSCLESLVAGPAEKSRGQWEGCR[AEEA][AEEA]GYSWLRDVLMEKQAQLKREGSVGRQE
modifications: cysteine pairing not given here
notes: 111 conjugated by POX
B2: F194 (peptide)
peptide: XEESFYSCLESLVNGGAERSDGQWEGCREE
modifications: N-terminal Lig (lysine with a 2-aminohydroxyacetyl group on the epsilon amino group)
B3: F191 (peptide)
peptide: EEGVDEVRAWLWCQISGLGCESEEX
modifications: C-terminal Lig (lysine with a 2-aminohydroxyacetyl group on the epsilon amino group)
B4: F119 (peptide)
peptide: XGSLDESFYDWFERQLGKK
modifications: N-terminal Lig (lysine with a 2-aminohydroxyacetyl group on the epsilon amino group)

biological target: T1, IGF-1R on SW480 cells (UniProt P08069 31-1367, limits assumed); test: cell-based or functional assay
T1 sequence (P08069 31-1367 limits assumed): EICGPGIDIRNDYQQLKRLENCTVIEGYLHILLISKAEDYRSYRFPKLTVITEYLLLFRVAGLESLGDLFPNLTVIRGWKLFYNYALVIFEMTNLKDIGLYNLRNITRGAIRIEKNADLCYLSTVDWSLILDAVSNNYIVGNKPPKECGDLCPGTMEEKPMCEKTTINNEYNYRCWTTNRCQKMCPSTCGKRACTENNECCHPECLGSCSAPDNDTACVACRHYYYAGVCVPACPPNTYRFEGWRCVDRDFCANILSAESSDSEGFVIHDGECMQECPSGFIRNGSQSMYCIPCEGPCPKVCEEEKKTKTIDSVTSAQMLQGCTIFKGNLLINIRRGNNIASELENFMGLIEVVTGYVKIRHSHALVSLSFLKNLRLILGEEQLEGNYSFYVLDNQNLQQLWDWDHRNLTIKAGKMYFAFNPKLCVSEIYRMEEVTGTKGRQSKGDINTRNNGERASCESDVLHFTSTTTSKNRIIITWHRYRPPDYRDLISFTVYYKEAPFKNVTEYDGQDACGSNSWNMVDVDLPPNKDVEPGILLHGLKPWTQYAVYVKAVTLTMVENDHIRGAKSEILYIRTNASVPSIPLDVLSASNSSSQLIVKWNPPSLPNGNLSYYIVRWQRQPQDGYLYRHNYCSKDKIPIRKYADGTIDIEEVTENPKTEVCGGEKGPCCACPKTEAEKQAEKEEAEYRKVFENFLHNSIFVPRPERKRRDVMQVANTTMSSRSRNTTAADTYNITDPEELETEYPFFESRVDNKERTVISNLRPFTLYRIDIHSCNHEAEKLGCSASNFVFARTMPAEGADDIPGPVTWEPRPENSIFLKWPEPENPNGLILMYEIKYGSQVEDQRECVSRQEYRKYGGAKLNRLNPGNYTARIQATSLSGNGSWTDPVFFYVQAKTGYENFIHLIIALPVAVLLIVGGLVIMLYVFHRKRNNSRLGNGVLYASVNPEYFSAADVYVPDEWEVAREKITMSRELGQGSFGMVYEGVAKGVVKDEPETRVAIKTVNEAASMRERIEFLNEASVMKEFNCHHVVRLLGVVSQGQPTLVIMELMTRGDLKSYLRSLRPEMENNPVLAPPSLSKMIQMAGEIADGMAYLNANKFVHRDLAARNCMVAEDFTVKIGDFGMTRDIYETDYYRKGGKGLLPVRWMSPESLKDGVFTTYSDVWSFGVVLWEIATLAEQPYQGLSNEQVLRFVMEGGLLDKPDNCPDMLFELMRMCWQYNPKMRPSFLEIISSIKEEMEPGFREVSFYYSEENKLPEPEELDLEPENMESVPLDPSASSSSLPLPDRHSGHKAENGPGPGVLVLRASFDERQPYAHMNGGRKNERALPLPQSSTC

Binder | IC50, IGF-1 (10 nM)-induced proliferation of SW480 cells, exp. 13262-014 | IC50, IGF-1 (10 nM)-induced proliferation of SW480 cells, exp. 13262-015 | IC50, IGF-1 (10 nM)-induced proliferation of SW480 cells, exp. 13262-025 | IC50, IGF-1 (10 nM)-induced proliferation of SW480 cells, exp. 13262-027 | IC50, IGF-1 (10 nM)-induced proliferation of SW480 cells, exp. 13717-019 | IC50, IGF-1 (10 nM)-induced proliferation of SW480 cells, exp. 13717-027
SFYSCLESLVSGPAEKSHRRWEACR [F321] | > 10 µM | – | – | – | – | –
VQDDCRGRPCGDADSFYEWFDQQAGYGSSSRRAPQT [F364] | – | > 10 µM | – | – | – | –
QFYGCLLDLSLGVPSFGWKKKCITA [F392] | – | – | > 10 µM | 1 µM | – | –
ESFYSCLASLVTGIPRSNSGTQVFCREE [F227] | – | > 10 µM | – | – | – | –
SFYSCLESLVKRPTERSRGQWVGCR [F320] | > 10 µM | – | – | – | – | –
DFYGCLLDLSLGVPSLGWRRRCIT [F428] | – | – | – | – | 1 µM | 1 µM
IFYSCLASLLHGGPQRNTGPWERCRR [F141] | – | > 10 µM | – | – | – | –

biological target: T1, IGF-1R on SW480 cells; test: cell-based or functional assay; remark: another data set of the same source

Binder | IC50 in SW480 (M) in presence of IGF-1 | IC50 in SW480 (M), peptide alone
RQWDCRGRPCGDAESFYEWFDQQRS [F264] | > 1e-05 M | > 1e-05 M
VQDDCRGRPCGDADSFYEWFDQQAS [F263, listing 1 of 2 here] | > 1e-06 M | > 1e-06 M
SFYSCLESLVNGPAEKSRGQWDGCR [F249] | > 1e-05 M | > 1e-05 M
ELQGFCELLATVTGVTGLGCLDYQPIE [F202] | > 1e-05 M | –

biological target: T2, human insulin-like growth factor-1 receptor (HIGF-1R) (human, UniProt P08069 31-1367); test: 125I-IGF-1 displacement, SPA-assay
T2 construct: Detergent-solubilised receptor purified on WGA-agarose; also called HIGFIR
Description: In certain cases, a scintillation proximity assay (SPA assay) was used to determine IGF-1R affinity.

T2 sequence (P08069 31-1367 limits assumed): as the sequence (P08069 31-1367 limits assumed) above

Binder | Kd
B1 | 82 µM
Ac-SFYSCLESLVQGPAEKSRGQWEGCRK (cysteine pairing not given here, Second row labelled F365) [F365 (row r332, SEQ ID NO 200)] | 0.26 µM
VQDDCRGRPCGDADSFYEWFDQQAS [F263, listing 2 of 2 here] | 2.5 µM
{Biotin-AEEA}-SFYSCLESLVQGPAEKSRGQWEGCRK (cysteine pairing not given here) [F414] | 65 µM
EGRVDDAFYEWFERQLGEELCQSWGVRIGWLAGLCPE [F410] | 37 µM
GVGGWRYGSFPSFSSQTRS [F431] | 0.0017 µM
Ac-SFYSCLESLVTGPKERSRGQWEGCRR (cysteine pairing not given here) [F306] | 0.1 µM
SFYSCLESLVNGPAEKFRGRRDGCR [F380] | 46 µM
ESYGDCRDRPCGDAPNFYDWFVQQASE [F270] | 7 µM
QFYGCLLDLSLGVPSFGWRRRCITA (N-terminal Pox (8-amino-3,6-dioxaoctanoic acid)) [F406] | 14 µM
RQFYGCLLDLSLGVPSFGWRRRCITAR [F407] | 69 µM
SQDQVGASLGSAISGRGGLSNFYSCLTSLATDTTRPSRRPWERCR [F397] | 28 µM
B2 | 55 µM
VQDDCRGRPCGDADSFYEWFDQGYGSSSRRAPQT [F404] | 62 µM

biological target: T2, human insulin-like growth factor-1 …; test: 125I-IGF-1 displacement, PEG-assay
Experimental: IGF-1R affinity studies were generally performed as follows. […] The day before harvest cells were moved to serum free conditions and before harvest the cells were rinsed with and ice cold PBS solution. The cells were solubilized in cold lysis buffer (4 ml lysis buffer/1×10⁸ cells); vortexed vigorously to lysis in lysis buffer (50 mM Hepes (pH 8.0); 150 mM NaCl; 1% Triton X-100; 2 mM EDTA; 10 μg/mlaprotinin; 0.5 mM PEFABLOC (Roche)); and the lysate centrifuged at 4° C., 20000 rpm, for 15 minutes. […] In some cases, human insulin receptor (HIR) affinity for select test peptides was similarly measured.

Binder | Kd
ELSFACLLSQLSGVVLPDCLLGEDE [F201] | 43 µM
ETFYKCLASVLTGSTQTKRRPWEGCREE [F229] | 37 µM
FFYRCLSRLLGGQLGSRLGLSCIGD [F139] | 8 µM
EGRVDDAFYEWFERQLGE [F213] | 0.8 µM
ESFYSCLASLVAGTPWPKGGSWERCREE [F230] | 20 µM
ESFYSCLESLVNGPAEKSRGQWDGCRE [F215] | 82 µM
GVRAMSFYDALVSVLGLGPSG [F157] | 2 µM
EDHRLCGTDEYLMQDLFVRGLCRLIWE [F164] | 4 µM
TFYSCLASLLTGPREQNRGAWERCRR [F142] | 0.04 µM
EWLEQERAWIWCEIQGSGCRAE [F216] | 10 µM
DDDKGSLDESFYDWFERQLGTFYSCLASLLTGTPQPNRGPWERCR [F110] | 1 µM
SFYSCLESLVNGPAEKSRGQWDGCRK [F250] | 42 µM
B3 | 54 µM
KLHNLMFYYGLQRLVWGAGLG [F159] | 5 µM
B4 | 1 µM
VEGRGLFYDLLRQLLARRQNG [F158] | 0.9 µM

biological target: IGF-1R on L6 cells; test: cell-based or functional assay

Binder | IC50, down regulation of 3 nM IGF-1 stimulation to basal level, IGF-IR, L6 cells | IC50, down regulation of 3 nM IGF-1 stimulation to basal level, IRS-1, L6 cells | IC50, down regulation of 3 nM IGF-1 stimulation to basal level, MAPK42, L6 cells | IC50, down regulation of 3 nM IGF-1 stimulation to basal level, MAPK44, L6 cells
SFYSCLESLVKRPTERSRGQWVGCR [F320] | 2 µM and > 1 µM | > 2 µM | 1 µM | 1 µM

Reference: patent publication US20110039779A1 (published 2011)
